T1: GARS-His (Sino Biological) (human, UniProt P41250 37-739, limits assumed)
T1 construct: Bought; also called GARS1; glycyl-tRNA synthetase; not shown: His tag of the bought protein
T1 sequence: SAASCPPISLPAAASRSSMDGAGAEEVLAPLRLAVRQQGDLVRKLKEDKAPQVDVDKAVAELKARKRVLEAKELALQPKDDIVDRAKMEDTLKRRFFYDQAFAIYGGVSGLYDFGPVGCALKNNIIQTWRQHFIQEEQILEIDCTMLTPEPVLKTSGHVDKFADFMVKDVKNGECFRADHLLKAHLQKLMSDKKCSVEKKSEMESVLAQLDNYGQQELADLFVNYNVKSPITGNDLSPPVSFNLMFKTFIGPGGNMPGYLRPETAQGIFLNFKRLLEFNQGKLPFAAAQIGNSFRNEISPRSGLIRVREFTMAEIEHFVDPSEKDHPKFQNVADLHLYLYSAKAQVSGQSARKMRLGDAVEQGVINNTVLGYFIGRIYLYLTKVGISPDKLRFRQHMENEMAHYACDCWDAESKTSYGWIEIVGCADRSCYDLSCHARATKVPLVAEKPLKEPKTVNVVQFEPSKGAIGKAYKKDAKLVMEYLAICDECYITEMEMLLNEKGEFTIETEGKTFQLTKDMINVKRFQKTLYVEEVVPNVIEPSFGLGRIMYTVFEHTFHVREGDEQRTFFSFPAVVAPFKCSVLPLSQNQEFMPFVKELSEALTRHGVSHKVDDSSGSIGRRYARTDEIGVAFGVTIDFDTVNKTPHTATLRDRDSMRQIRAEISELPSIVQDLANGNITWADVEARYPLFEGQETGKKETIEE

T2: CADM1, endogenous in H929 multiple myeloma cells (human, UniProt Q9BY67 45-442)
T2 construct: Native protein on H929 cells (flow cytometry, siRNA knockdown) and in H929 lysates (IP/MS); RPMI-8226 cells were used for sorting with HW-97; also called IGSF4A
T2 sequence: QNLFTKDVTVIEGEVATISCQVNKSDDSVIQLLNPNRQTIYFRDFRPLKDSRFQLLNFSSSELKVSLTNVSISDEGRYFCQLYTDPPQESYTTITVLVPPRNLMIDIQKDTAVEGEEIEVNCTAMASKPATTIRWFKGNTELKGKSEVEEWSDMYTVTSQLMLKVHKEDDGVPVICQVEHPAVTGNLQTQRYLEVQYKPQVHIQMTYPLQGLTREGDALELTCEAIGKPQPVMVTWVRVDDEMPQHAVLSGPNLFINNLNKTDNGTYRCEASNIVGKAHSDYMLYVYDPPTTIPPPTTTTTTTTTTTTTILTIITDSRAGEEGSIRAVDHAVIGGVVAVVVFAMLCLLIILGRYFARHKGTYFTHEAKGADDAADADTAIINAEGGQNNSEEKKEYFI


Columns and labels:
[1] = biological target: T3, PTPRG, endogenous in H929 multiple myeloma cells (human, UniProt P23470 20-1445); assay: flow cytometry, H929 + ICAM1 siRNA; None 455
T3 construct: Native protein on H929 cells (flow cytometry, siRNA knockdown) and in H929 lysates (IP/MS); also called phosphatase receptor type γ

[2] = biological target: T3, PTPRG, endogenous in H929 multiple …; assay: flow cytometry, H929 + CADM1 siRNA; None 449
[3] = biological target: T3, PTPRG, endogenous in H929 multiple …; assay: flow cytometry, H929 + PTPRG siRNA (target knocked down); None 490
[4] = biological target: T1, GARS-His (Sino Biological); assay: ELISA on coated GARS-His
Protocol: Recombinant purified ECDs (50-150 ng) of each putative target protein were coated, incubated with 150 ng of the indicated primary antibody, and binding was detected using a peroxidase-conjugated anti-human Fab secondary antibody. Heatmap represents averages of technical triplicates. (8B) Target validation via siRNA knockdown. H929 cells were transfected with siRNA pools targeting the putative antibody targets ICAM1, CADM1, and PTPRG. Cells were then subjected to cognate IgG binding analysis via flow cytometry. (NT, non-targeting siRNA).
ELISA ELISA was conducted as described previously. Briefly, 50-150 ng of antigen was coated overnight in half-area 96-well plates at 4° C., blocked with 3% BSA at 37° C. for 1 h, and 150 ng of chimeric rabbit/human IgG1 was added, incubating for 2 h at 37° C. […] After incubating at 37° C. for 15 min-1 h (depending on intensity of controls), data were acquired using a SpectraMax M5 plate reader (Molecular Devices).

[5] = biological target: T3, PTPRG, endogenous in H929 multiple …; assay: flow cytometry, H929 + CADM1 siRNA; None 0.89
[6] = biological target: T2, CADM1, endogenous in H929 multiple …; assay: flow cytometry, H929 + vehicle; None 513
[7] = biological target: T2, CADM1, endogenous in H929 multiple …; assay: flow cytometry, H929 + NT Green siRNA; None 1.35
[8] = biological target: T2, CADM1, endogenous in H929 multiple …; assay: flow cytometry, H929 + vehicle; None 2.74

T3 sequence (P23470 20-1445 limits assumed): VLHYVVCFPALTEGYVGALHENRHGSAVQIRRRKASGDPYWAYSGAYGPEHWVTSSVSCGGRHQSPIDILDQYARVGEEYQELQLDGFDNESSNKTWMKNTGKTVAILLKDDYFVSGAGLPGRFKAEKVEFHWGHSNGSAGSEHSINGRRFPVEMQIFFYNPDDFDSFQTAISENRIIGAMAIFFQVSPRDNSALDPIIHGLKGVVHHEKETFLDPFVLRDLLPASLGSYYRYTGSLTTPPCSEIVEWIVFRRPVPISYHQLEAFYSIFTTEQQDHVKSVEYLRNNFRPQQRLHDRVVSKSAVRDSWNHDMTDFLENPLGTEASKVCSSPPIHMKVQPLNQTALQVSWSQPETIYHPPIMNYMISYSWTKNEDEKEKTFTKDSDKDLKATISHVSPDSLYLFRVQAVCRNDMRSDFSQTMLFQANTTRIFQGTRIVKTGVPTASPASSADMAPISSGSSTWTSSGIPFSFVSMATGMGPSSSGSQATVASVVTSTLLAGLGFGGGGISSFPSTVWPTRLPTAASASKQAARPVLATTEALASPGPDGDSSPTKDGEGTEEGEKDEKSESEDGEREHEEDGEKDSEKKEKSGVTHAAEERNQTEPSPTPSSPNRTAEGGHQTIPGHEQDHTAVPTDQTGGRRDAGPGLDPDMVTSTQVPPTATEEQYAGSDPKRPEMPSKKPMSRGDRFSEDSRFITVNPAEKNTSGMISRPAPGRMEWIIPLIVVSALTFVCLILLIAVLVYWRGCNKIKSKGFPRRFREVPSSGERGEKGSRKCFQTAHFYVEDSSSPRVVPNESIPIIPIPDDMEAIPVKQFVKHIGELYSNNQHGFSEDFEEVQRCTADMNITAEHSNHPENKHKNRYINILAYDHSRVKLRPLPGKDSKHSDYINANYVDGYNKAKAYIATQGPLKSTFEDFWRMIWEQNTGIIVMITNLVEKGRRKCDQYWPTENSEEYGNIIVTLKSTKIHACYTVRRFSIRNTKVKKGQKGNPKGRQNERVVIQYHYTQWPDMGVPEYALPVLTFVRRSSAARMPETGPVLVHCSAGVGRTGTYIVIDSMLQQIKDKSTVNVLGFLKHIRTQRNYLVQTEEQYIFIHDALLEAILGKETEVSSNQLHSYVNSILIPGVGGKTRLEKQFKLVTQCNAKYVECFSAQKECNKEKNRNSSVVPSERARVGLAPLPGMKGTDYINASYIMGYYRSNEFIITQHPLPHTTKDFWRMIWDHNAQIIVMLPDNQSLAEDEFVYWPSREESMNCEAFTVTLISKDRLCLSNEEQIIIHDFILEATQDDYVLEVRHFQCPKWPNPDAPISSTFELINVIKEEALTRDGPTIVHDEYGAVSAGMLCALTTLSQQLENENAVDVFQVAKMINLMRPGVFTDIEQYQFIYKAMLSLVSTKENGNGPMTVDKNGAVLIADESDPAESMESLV

Row | Binder | mAb binding (MFI) [1] | mAb binding (MFI) [2] | mAb binding (MFI) [3] | Cells stained (%) [5] | mAb binding (MFI) [6] | Cells stained (%) [7] | Cells stained (%) [8] | binding result [4]
1 | HW-42 chimeric rabbit-human IgG1 LA/LA/PG (antibody, V domains shown, Fc-silenced (L234A/L235A/P329G) IgG1, lambda; Alexa Fluor 647-labeled in single-step flow cytometry; Cluster C-1) VH: QSVKESEGGLFKPADTLTLTCTVSGFSLSSNEISWVRQAPGEGLEYIGIIDTGGRAYYAVWARSRSTITRNTNLNTVTLKMTSLTAADTATYFCARGGVDTEWYAFSSWGPGTLVTVPS VL: SFVLTQPASVQVNLGQTVSLTCTADTLSRRYASWYQQKPGQAPVLLIFRDTSRPSGVPDRFSGSSSGDTATLTISGAQAGDEADYYCATSDGSGSNYQYVFGGGTQLTVTG | 12100 | 9210 | 649 | 97.3% |  |  |  | no binding (tested: 150 ng IgG1 per well)
2 | HW-25 chimeric rabbit-human IgG1 LA/LA/PG (antibody, V domains shown, Fc-silenced (L234A/L235A/P329G) IgG1, lambda; Alexa Fluor 647-labeled in single-step flow cytometry; Cluster C-1) VH: QSLEESGGRLVTPGTPLTLTCTVSGFSLSSYAMGWVRQAPGKGLEWIGIIDSRGSTYYATWAKGRFTISKTSTTVDLKITSPTTEDTATYFCAREDSYYYDSFNLWGPGTLVTVSS VL: SFVLTQPASVQVNLGQTVSLTCTADTLSRRYASWYQQKPGQAPVLLIYRDTSRPSGVPDRFSGSSSGNTATLTISGAQAGDEADYYCATSDGSGSSYQCVFGGGTQLTVTG | 11400 | 8720 | 839 | 97.7% |  |  |  | no binding (tested: 150 ng IgG1 per well)
3 | HW-1 chimeric rabbit-human IgG1 LA/LA/PG (antibody, V domains shown, Fc-silenced (L234A/L235A/P329G) IgG1, lambda; Alexa Fluor 647-labeled in single-step flow cytometry; Prototype of cluster C-1) VH: QSLEESGGGLFKPTDTLTLTCTASGFSLGSSYAISWVRQAPGKELEWIGTIDSGRAYYARWAKSRSTITRNTNENTVTLKMTSLTAADTATYFCARDLIPTYSQDIWGPGTLVTISS VL: SFVLTQPASVQVNLGQTVSLTCTADTLSRRYASWYQQKPGQAPVLLIYRDTSRPSGVPDRFSGSSSGNTATLTISGAQAGDEADYYCATSDGSGNSYQYVFGGGTQLTVTS | 24500 | 17500 | 1140 | 99.3% |  |  |  | 
4 | HW-70 chimeric rabbit-human IgG1 LA/LA/PG (antibody, V domains shown, Fc-silenced (L234A/L235A/P329G) IgG1, lambda; Alexa Fluor 647-labeled in single-step flow cytometry; Cluster C-1) VH: QSLEESGGRLVTPGTPLTLTCTVSGFSLSSNAMSWVRQAPGKGLEWIGTIDGYGYTYYASWAKGRFTVSKTSTTVDLKITSPTTEDTATYFCAREIYLGSNFWGPGTLVTISS VL: SFVLTQPASVQVNLGQTVSLTCTADTLSRRYASWYQQKPGQAPVLLIYRDTSRPSGVPDRFSGSSSGNTATLTISGAQAGDEADYYCATADGSGSSYQFVFGGGTQLTVTG | 17900 | 13800 | 840 | 98.7% |  |  |  | no binding (tested: 150 ng IgG1 per well)
5 | HW-17 chimeric rabbit-human IgG1 LA/LA/PG (antibody, V domains shown, Fc-silenced (L234A/L235A/P329G) IgG1, lambda; Alexa Fluor 647-labeled in single-step flow cytometry; Cluster C-1) VH: QSLGESRGRLVTPDETLTLTCTVSGIDLSSNAMSWVRQAPGEGLEWIGTINTGGRAYYASWAKGRFTISRTSTTVDLKMTSLTTEDTATYFCARERYSDGRAYDIWGPGTLVTISS VL: SFVLTQPASVQVNLGQTVSLTCTADTLSRRYASWYQQKPGQAPVLLIYTDSNRPSGIPDRFSGSSSGNTATLTISGAQAGDEADYYCATDDGSGSIYQYVFGGGTQLTVTG | 28000 | 21000 | 1160 | 99.3% |  |  |  | 

Second part, led by results:

Row | mAb binding (MFI) [1] | mAb binding (MFI) [2] | mAb binding (MFI) [3] | Cells stained (%) [5] | mAb binding (MFI) [6] | Cells stained (%) [7] | Cells stained (%) [8] | Binder | binding result [4]
6 |  |  |  |  | 5940 | 94.3% | 94.3% | HW-101 chimeric rabbit-human IgG1 LA/LA/PG (antibody, V domains shown, Fc-silenced (L234A/L235A/P329G) IgG1, lambda; Alexa Fluor 647-labeled in single-step flow cytometry; Cluster C-97) VH: QEQLVESGGRLVTPGTPLTLTCKASGFSLGKYDMSWVRQAPGKGLEWIGTIYAGSGSTWYASWAKGRFTISKTSTTVDLKMTSLTTEDTATYFCARDFLGVNSIWGPGTLVTISS VL: SFVLTQPASVQVNLGQTVSLTCTADTLSRSYASWYQQKPDQAPVLLIHRDTSRPSGVPDRFSGSNSGNTATLTISGAQAGDEADYYCATSDGSGSNFHFVFGGGTQLTVTG | 
7 |  |  |  |  | 9510 | 98.1% | 98.4% | HW-97 chimeric rabbit-human IgG1 LA/LA/PG (antibody, V domains shown, Fc-silenced (L234A/L235A/P329G) IgG1, lambda; Alexa Fluor 647-labeled in single-step flow cytometry; Prototype of cluster C-97) VH: QKQLVESGGRLVTPGTPLTLTCTVTGIDLSSHGMSWVRQAPGKGLEWIGVIYPSGSTWYASWARGRFTISKTSTTVDLKMTSLTTEDTATHFCARGDVGGADNNIWGPGTLVTVSS VL: SFVLTQPASVQVDLGQTVSLTCTAETLSRSYASWYQQKPGQAPVLLIYRDTSRPSGVPDRFSGSSSGNTATLTISGAQAGDEADYYCATSDGSGSSYQYVFGGGTQLTVTG | 
8 |  |  |  |  | 595 | 1.86% | 2.62% | TH9-0022 (antibody, human IgG1, kappa, L234A L235A, V domains shown, also called TH9-022; negative control) VH: QSLEESGGRLVTPGTPLTLTCTVSGFSLSSYAMNWVRQAPGKGLEWIGIINSYGSTYYASWAKGRFTISKTSTTVDLKITSPTTEDTATYFCARVTYDSYGYGYAPYGMDLWGPGTLVTVSS VL: LVMTQTPSSTSNAVGGTVTIKCQASQSIGNVLAWYQQKPGQPPKLLIYAASTLASGVPSRVGGSRSGTEYTLTISGVQREDAATYYCLGSDSDSDIAFGGGTELEILR | no binding (tested: 150 ng IgG1 per well)

Source: US20260049134A1 (UNIVERSITY OF FLORIDA RESEARCH FOUNDATION, published 2026)
